Test results as given in patent US20150344570A1 (published 2015).

target: T1, FcγRIIa R (human, UniProt P12318 34-217); assay: SPR (Biacore), captured antibody, FcγR as analyte; relative binding activity
T1 construct: extracellular domain; also called FcgRIIa R type; 2aR
T1 sequence (looked up): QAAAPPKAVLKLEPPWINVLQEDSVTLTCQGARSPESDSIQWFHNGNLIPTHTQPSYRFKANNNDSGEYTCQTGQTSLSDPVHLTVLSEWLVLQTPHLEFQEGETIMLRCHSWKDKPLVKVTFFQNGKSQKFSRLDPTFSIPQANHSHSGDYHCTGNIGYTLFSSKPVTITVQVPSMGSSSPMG

Row | Binder | He/Con_2aR
1 | GpH7-A5/GpH7-B3 variant I336_08L/GpL16-k0 (antibody, human IgG1, kappa, also called He Ab I336_08L) heavy 1: not shown heavy 2: not shown light: DIVMTQSPLSLPVTPGEPASISCQASESLVHSNRNTYLHWYLQKPGQSPQLLIYKVSNRFSGVPDRFSGSGSGTDFTLKISRVEAEDVGVYYCSQNTHVPPTFGQGTKVEIERTVAAPSVFIFPPSDEQLKSGTASVVCLLNNFYPREAKVQWKVDNALQSGNSQESVTEQDSKDSTYSLSSTLTLSKADYEKHKVYACEVTHQGLSSPVTKSFNRGEC | 110 % (GpH7-A5/GpH7-B3/GpL16-k0 = 100)
2 | GpH7-A5/GpH7-B3 variant I336_18N/GpL16-k0 (antibody, human IgG1, kappa, also called He Ab I336_18N) heavy 1: not shown heavy 2: not shown light: DIVMTQSPLSLPVTPGEPASISCQASESLVHSNRNTYLHWYLQKPGQSPQLLIYKVSNRFSGVPDRFSGSGSGTDFTLKISRVEAEDVGVYYCSQNTHVPPTFGQGTKVEIERTVAAPSVFIFPPSDEQLKSGTASVVCLLNNFYPREAKVQWKVDNALQSGNSQESVTEQDSKDSTYSLSSTLTLSKADYEKHKVYACEVTHQGLSSPVTKSFNRGEC | 104 % (GpH7-A5/GpH7-B3/GpL16-k0 = 100)
3 | GpH7-A5/GpH7-B3 variant K326_03V/GpL16-k0 (antibody, human IgG1, kappa, also called He Ab K326_03V) heavy 1: not shown heavy 2: not shown light: DIVMTQSPLSLPVTPGEPASISCQASESLVHSNRNTYLHWYLQKPGQSPQLLIYKVSNRFSGVPDRFSGSGSGTDFTLKISRVEAEDVGVYYCSQNTHVPPTFGQGTKVEIERTVAAPSVFIFPPSDEQLKSGTASVVCLLNNFYPREAKVQWKVDNALQSGNSQESVTEQDSKDSTYSLSSTLTLSKADYEKHKVYACEVTHQGLSSPVTKSFNRGEC | 141 % (GpH7-A5/GpH7-B3/GpL16-k0 = 100)
4 | GpH7-A5/GpH7-B3 variant K326_04F/GpL16-k0 (antibody, human IgG1, kappa, also called He Ab K326_04F) heavy 1: not shown heavy 2: not shown light: DIVMTQSPLSLPVTPGEPASISCQASESLVHSNRNTYLHWYLQKPGQSPQLLIYKVSNRFSGVPDRFSGSGSGTDFTLKISRVEAEDVGVYYCSQNTHVPPTFGQGTKVEIERTVAAPSVFIFPPSDEQLKSGTASVVCLLNNFYPREAKVQWKVDNALQSGNSQESVTEQDSKDSTYSLSSTLTLSKADYEKHKVYACEVTHQGLSSPVTKSFNRGEC | 135 % (GpH7-A5/GpH7-B3/GpL16-k0 = 100)
5 | GpH7-A5/GpH7-B3 variant K326_07I/GpL16-k0 (antibody, human IgG1, kappa, also called He Ab K326_07I) heavy 1: not shown heavy 2: not shown light: DIVMTQSPLSLPVTPGEPASISCQASESLVHSNRNTYLHWYLQKPGQSPQLLIYKVSNRFSGVPDRFSGSGSGTDFTLKISRVEAEDVGVYYCSQNTHVPPTFGQGTKVEIERTVAAPSVFIFPPSDEQLKSGTASVVCLLNNFYPREAKVQWKVDNALQSGNSQESVTEQDSKDSTYSLSSTLTLSKADYEKHKVYACEVTHQGLSSPVTKSFNRGEC | 147 % (GpH7-A5/GpH7-B3/GpL16-k0 = 100)
6 | GpH7-A5/GpH7-B3 variant K326_08L/GpL16-k0 (antibody, human IgG1, kappa, also called He Ab K326_08L) heavy 1: not shown heavy 2: not shown light: DIVMTQSPLSLPVTPGEPASISCQASESLVHSNRNTYLHWYLQKPGQSPQLLIYKVSNRFSGVPDRFSGSGSGTDFTLKISRVEAEDVGVYYCSQNTHVPPTFGQGTKVEIERTVAAPSVFIFPPSDEQLKSGTASVVCLLNNFYPREAKVQWKVDNALQSGNSQESVTEQDSKDSTYSLSSTLTLSKADYEKHKVYACEVTHQGLSSPVTKSFNRGEC | 137 % (GpH7-A5/GpH7-B3/GpL16-k0 = 100)
7 | GpH7-A5/GpH7-B3 variant K326_12R/GpL16-k0 (antibody, human IgG1, kappa, also called He Ab K326_12R) heavy 1: not shown heavy 2: not shown light: DIVMTQSPLSLPVTPGEPASISCQASESLVHSNRNTYLHWYLQKPGQSPQLLIYKVSNRFSGVPDRFSGSGSGTDFTLKISRVEAEDVGVYYCSQNTHVPPTFGQGTKVEIERTVAAPSVFIFPPSDEQLKSGTASVVCLLNNFYPREAKVQWKVDNALQSGNSQESVTEQDSKDSTYSLSSTLTLSKADYEKHKVYACEVTHQGLSSPVTKSFNRGEC | 103 % (GpH7-A5/GpH7-B3/GpL16-k0 = 100)
8 | GpH7-A5/GpH7-B3 variant K326_15Y/GpL16-k0 (antibody, human IgG1, kappa, also called He Ab K326_15Y) heavy 1: not shown heavy 2: not shown light: DIVMTQSPLSLPVTPGEPASISCQASESLVHSNRNTYLHWYLQKPGQSPQLLIYKVSNRFSGVPDRFSGSGSGTDFTLKISRVEAEDVGVYYCSQNTHVPPTFGQGTKVEIERTVAAPSVFIFPPSDEQLKSGTASVVCLLNNFYPREAKVQWKVDNALQSGNSQESVTEQDSKDSTYSLSSTLTLSKADYEKHKVYACEVTHQGLSSPVTKSFNRGEC | 136 % (GpH7-A5/GpH7-B3/GpL16-k0 = 100)
9 | GpH7-A5/GpH7-B3 variant K326_18N/GpL16-k0 (antibody, human IgG1, kappa, also called He Ab K326_18N) heavy 1: not shown heavy 2: not shown light: DIVMTQSPLSLPVTPGEPASISCQASESLVHSNRNTYLHWYLQKPGQSPQLLIYKVSNRFSGVPDRFSGSGSGTDFTLKISRVEAEDVGVYYCSQNTHVPPTFGQGTKVEIERTVAAPSVFIFPPSDEQLKSGTASVVCLLNNFYPREAKVQWKVDNALQSGNSQESVTEQDSKDSTYSLSSTLTLSKADYEKHKVYACEVTHQGLSSPVTKSFNRGEC | 115 % (GpH7-A5/GpH7-B3/GpL16-k0 = 100)
10 | GpH7-A5/GpH7-B3 variant K326_20W/GpL16-k0 (antibody, human IgG1, kappa, also called He Ab K326_20W) heavy 1: not shown heavy 2: not shown light: DIVMTQSPLSLPVTPGEPASISCQASESLVHSNRNTYLHWYLQKPGQSPQLLIYKVSNRFSGVPDRFSGSGSGTDFTLKISRVEAEDVGVYYCSQNTHVPPTFGQGTKVEIERTVAAPSVFIFPPSDEQLKSGTASVVCLLNNFYPREAKVQWKVDNALQSGNSQESVTEQDSKDSTYSLSSTLTLSKADYEKHKVYACEVTHQGLSSPVTKSFNRGEC | 131 % (GpH7-A5/GpH7-B3/GpL16-k0 = 100)
11 | GpH7-A5/GpH7-B3 variant K334_02A/GpL16-k0 (antibody, human IgG1, kappa, also called He Ab K334_02A) heavy 1: not shown heavy 2: not shown light: DIVMTQSPLSLPVTPGEPASISCQASESLVHSNRNTYLHWYLQKPGQSPQLLIYKVSNRFSGVPDRFSGSGSGTDFTLKISRVEAEDVGVYYCSQNTHVPPTFGQGTKVEIERTVAAPSVFIFPPSDEQLKSGTASVVCLLNNFYPREAKVQWKVDNALQSGNSQESVTEQDSKDSTYSLSSTLTLSKADYEKHKVYACEVTHQGLSSPVTKSFNRGEC | 105 % (GpH7-A5/GpH7-B3/GpL16-k0 = 100)
